Test results: article PMC11605055

T1: HIM-8 ZF1-2-CTD (Caenorhabditis elegans (N2), UniProt O18068 223-361)
T1 sequence: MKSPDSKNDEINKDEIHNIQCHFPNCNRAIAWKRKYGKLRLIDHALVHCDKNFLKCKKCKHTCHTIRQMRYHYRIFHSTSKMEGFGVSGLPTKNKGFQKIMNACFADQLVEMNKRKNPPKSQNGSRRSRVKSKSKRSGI


Biological target: T1, HIM-8 ZF1-2-CTD
Assay: ITC

Row | Binder | binding result | Kd [nM]
1 | X PC motif TG to CA (dsDNA) DNA 1: TTGGTCAGCACA DNA 2: TGTGCTGACCAA | no binding | –
2 | X chromosome PC motif 12 bp (dsDNA) DNA 1: TTGGTCAGTGCA DNA 2: TGCACTGACCAA | – | 430 ± 10
